experiment: yeast display, Sf9 membrane polyspecificity reagent, FACS + sequencing; frameworks hold sequencing errors
Summary of the method: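 Galactose induction of a Saccharomyces cerevisiae BJ5465 synthetic nanobody display library ran 36–48 hours. The cells were then stained for 1 hour at 4 °C with 10% biotinylated, detergent-solubilized Sf9 membrane reagent, pulled down on streptavidin microbeads and FACS-sorted into low and high (top ~1%) gates on expression and reagent-binding fluorescence. Labels for polyreactivity follow the gate of origin.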

| Sequence | polyreactivity (PSR sort gate) |
| --- | --- |
| QVQLVQSGGGLVHAGGSLRLSCAASGRISFYYAMGWYRQAPGKERELVAAISRGGSTYYPDSVKGRFTISRDNAKNTVFLQMNSLKPEDTAVYYCAATYSGVDTPSGYDYWGQGTQVTVSS | low polyreactivity |
| QVQLVQSGGGLVQAGGSLRLICAASGGTFSYNTMGWYRQAPGKVRELVAVITFSGGSTYYADCVKGRFTISRDNAKNTVYLQMNSLKQEDTAVYYCAADWLSKYDYWGQGTQVTVSS | low polyreactivity |
| QVQLVQSGGGLVQAGGSLRLSCAASGFTLRRNAMGWYRQAPGKERELVAAISSSGSTYYADSVKGRFTISRDNAKNTVYLQMNSLKPEDTAVYYCAASATYKVRGGYWGQGTQVTVSS | high polyreactivity |
| QVQLVQSGGGLVQAGGSLRLSCAASGRTFGRYAMGWYRQAPGKERELVAAINRGGSTKYADSVQGRFTISRDNAKNTVYLQMNSLKPEDTAVYYCAKDRHPALLYDYWGQGTEVTVSS | low polyreactivity |
| QVQLVQSGGGLVQAGGSLRLSSAASRSPLGYYALGWYRQAPGKERELVAAISGRGTSPYYADSVKGRFTISRDNAKNTVYVQMNSLKPEDTAVSYCAAQLFRELYWGQGTQVTVSS | high polyreactivity |
| QVQLVQSGGGLVQAGGSLSLSCAASGSIFNYNAMGWYRQAPGKERELVAAITSADGRTFYADSVKGRFTISRDNAKNTVYLQMNSLKPEDTAVYYCAAERTSRYSTYEYWGQGTQVTVSS | low polyreactivity |
| QVQLVQSGGGLVQAGGSLSLSCAASGSIFPGYTRGWYRQAPGKERELVAAISRRGGSTYYADSVKGRFTISRDNAKNPGYLQMNSLKPEDTAVYYCAKVPDYRFEYWGQGTQVTVSS | high polyreactivity |
| QVQLVQSVGGLVQAGGSLRLSCAATGRIFFSYAMGWYRQAPGKERELVAAISWDGGSTYYADSVKGRFTISRDNAKNTDYLQMTSLKPEDTAVSYCNADTHFPPSSSSYSPSLLDYWGQGTQVTVSS | low polyreactivity |
| QVQLVSSGGRLVQSGGSLRLSCAASGRTFYPYAMGWYRQAPGKERELVAGIRNSGTSTYYADSVKGRFTISRDNAKNTVYLQMNSLKPEVTAVYYCNARGYRNRGYGYDSWGQGTQVTVSS | high polyreactivity |
| QVQLVVSGGGLVQAGGSLRLICAASGFSFFFYALGWYSQAPGKDRELHATINWSGASTYYADSVMGRFTISRDNATNTVYLQMNSLKPEDTAVYYCAKDGHYPLVYLAFDYWGQGTQVTGSS | low polyreactivity |
| QVQLVVSGGGLVQAGGSLRLSCAASGFTFGYYAMGWYRQAPGKERELVAAITASGARTYYADSVKGRFTISRDNAKNTVYLQMNSLKPEDTAVYYCAAYTNAYRERWPDYGYWGQGTQVTVSS | high polyreactivity |
| QVQLVVSGGGLVQAGGSLRLSCAASGRTFYRYAMGWYRQAPGKEWELVAAISASGGITYYADSVKGRFTISRDNAKNTVYLQMNSLKPEDTAVYYCKAVWRKTEYDYWGQGTQVTVSS | high polyreactivity |
| QVQLVVSGGGLVQAGGSLRLSCAASGSIFPYYTMGWYRQAPGKEWELVAAISGSGTSTYYADSVKGRFTISRDNAKNTVYLQMNSLKPEDTAVYYCAKRFRYGYVNYYYWGQGTQVTVSS | low polyreactivity |
| QVQLVVSGGGLVQAGGSLRLSCATTGRIFHRSAMGWYRQAPGKERGLVAGISSSGGSTYADSVKGRFTISRDNAKNTVYLQMNSLKPEDTAVYYCAAKWRHSGGGMYYWGQGTQVTVSS | high polyreactivity |
| QVQLVVSGGGLVQQGGSLRLSCAASGTFRYYTMGWYRQAPGKERELVAAISRSGGRSYYADSVTGRCTISRDNAKNTVDLPMNSLKPEDTAVYYCAARYKLYYPDYYYWGQGTQVTVSS | high polyreactivity |
| QVQLVVSGGVLVQAGGSLRLSCAASGRTFASYTMGWYIQAAGKERELVAAISRGGNTYYADSVKGRFTISRDIAKNTVYLQMNSLKPDDTAVYYCAATAVKYDRRFYYWGQGTQVTVSS | high polyreactivity |
| QVQLVVSGPGLFQAGGSLRISCAPSGFIFYNYAMGWYRQAPGKERELVAAISRSGGSTYYADSVKGRFTISRDNAKNTVYLQMNSLKPEDTAVYYCKVGYGRGSTIGGYDYWGQGTQVTVSS | high polyreactivity |
| QVQLVYSGGGLVQAGGSLRLSCAASGISFSQYAMGWYRQAPGKERELVASISSGGRTNYADSVKGRFTISRDNAKNTVYLQLNSLTPEDTAVYYCAAEQWGWYWYDYWGQGTQVTVSS | high polyreactivity |
| QVQMQESGGGLVLAGGSLRLSCASSGSISAQAYMGWDRQAPGKEREHVAGINYGDNTNYADSVKGRFTISRDNEHRVSADEQPETGRYRGVLLRGFLELFYYYIYWGQGTQVTVSS | high polyreactivity |
| QVQMQESGGGLVQAGGSLRLICAASGTILYSLGMGWYRQATGKRREFVASITWGTTTNYAERVKGRFTISSDNAKNTVYPKIISLKPEVTAVYYCASPPFGDSSFHYWGQGTQVTVSS | low polyreactivity |
| QVQMQESRGGLVQAGGSLRLSCAASGTITTLPAMGWNRQAPGKEREFVAGIDTGAITNYADSVKGRFTISRDNAKNTVYLQKNSLKPEVTAVYYCAVFPAAYDYYERYYTYWGQGTQVTVMS | low polyreactivity |
| QVQPQESGGGLVQAGGSLRLSCAASGTIFAFQTMGWYRQAPGKERELVASITYGSSTNYADSVKGRFTISRDNAKNTVYLQMNSLKPEDTAVYYCAKSAQRYSYRYYYWGQGTQVTVSS | high polyreactivity |

| Sequence | polyreactivity (PSR sort gate) |
| --- | --- |
| QVQPQESGGGPVQACGSLRLSCAASGNILDADILGWYRLVPAKERELVASITDGGSTNYAESVKGRFTISRDNAKNTVYLQMNSLKPEDTAVYYCARRHRVFPSRIGHDYWGQGSQVTVSS | low polyreactivity |
| QVQPVESRGGLVQAGGSLRLSCAASGRIFARNAQGWYRTAPGKERELVAAITYSSGRTYYADSVKGRFTISRDNAKNTVYLQMNSLKPEHTAVYYCADGKGYIGVSVSGGYGYWGPGTQVTVSS | high polyreactivity |
| QVQQQASGGGLVQAGGSLRLSCATSGSIFYADTMGWYRQAPGKEREFVITYYADSVKGLSRDNAKNTVYLQMNSLKPEDSAVYYCATDGVNPFYAYDYWGQGTQVTVSS | low polyreactivity |
| QVQQQESGGGLVQACGSLPLSCAASVSIFTQATMGWYRQPPGKERELVAAINFGSSTYYADSVKGRFTISRDNAKSTVYLQMNSLKPEDTSVYYCAVRALWYDLHDYWGQGTQVTVSS | high polyreactivity |
| QVQQQESGGGLVQAGGSLRLSCAASGTIFQLTVMGRYRQAPGKERELVASIDYGGNTNYADSVKGRFTISRDNAKNTVYLQMHSLKPEDTAVYYCAASSDSWTTHPYWGQGTQVTVSS | low polyreactivity |
| QVQQQESGGGLVQEGGSLRLSCAASGYIFDYYYMGWYRQAPGKEREFVATISEGSTTNYADSVKGRFTTSRDNSKNTVYLQMNSLKPEDTAVYYCATDTVYGNDYWGQGTHVTVSS | low polyreactivity |
| QVQQRESGGGLVQAGGSLSLSCAASGTIFYSRYMGWYRQAPGKEREFVASISSGGNTNYADSVKGRCTISRDNAKNTVYLQMNSLKPEVTAVYYCAVNTGLITTFPFWGQATQVTVSS | high polyreactivity |
| QVQQVESGGGLVQAGGSLRLSCAASGFIFFGYAMGWYRQARGKERELVAAITSGGSTYYADSVKGRFTISRDNAKNTVYLQMNSLKPEDTAVYYCAADNSGWWGTGYNYWGQGTQVTVSS | high polyreactivity |
| QVQQVESGGGLVQAGVSLRLSCPASGLTFYTNPRGWYRQAPGKERELVAAIRRRGGRTYYADSVKGRFTISRDNATNSVYLQMNSLKPEDTAVSYCAADYSTLYNYDYWGQGTQVTVSS | low polyreactivity |
| QVQREESGGGLVQAGGSLRLSCAASGSILYYNAMGWYRQAPGKEREFVAGISSSGGSTYYADSVKGRFTISRDNAKNTVYLQMKSLQPEENAVYYCAKRTYWRRGWCFDFWGQGTQVTVSS | high polyreactivity |
| QVQRGESGGGLVQAGGSLRLSCAASAIIIYYYAMGCYRQAPGNERELVAGISYSGGSTYADSVKGRFTISRDNAKLTVYLQMNSLKPEDTAVYYCAAEYEYGGHWYDYWGQGTQETVSS | low polyreactivity |
| QVQRVDSGGGLRQAGGSLRLTCSASGSIFGLYAMGWYRQATGKERELVASISKSGGSTYYADCVKGRFTISRDNAKNTVYLQMNRLKPEDTAVYYCAARQYPRAGFDYWGQGTQVPVSS | high polyreactivity |
| QVQRVDSGGGLVQAGGSLRLTCAASGFTFSQYVMGWYRQAPGKARELVAAISYRGGSTYYADSVKGRFTISRDNAKNTVYVQMNSLKPEDTAVYYCAAVAYSWHNRYDYWGQGTQVTVSS | high polyreactivity |
| QVQRVESAAGLVQAGGSLRLSCAASGSIFWFNSMGWSRPEPGKERELVATIRYSGCSTYYADSVKGRFTISRDNAKKTVYLLMNSLKPDDTAVYYSAAVYRYSRSGYEYWGQGTQVTVSS | high polyreactivity |
| QVQRVESAGGLVQAGGSLRLSCAPSGRILPSNAMGWYRQAPGKERELVAGITSGGSTDYADSVKGRFTISRDNAKNTVYIQMHSLKPEDTAVYYCAADSRRYGVRFDYWGQGTQVTVSS | low polyreactivity |
| QVQRVESGAGLVQAGGILRLSCPASGSIFTNNPMGWSRQAPGKARELVAGISFRGSSTYADSVKGRFTISRDNAKNSVYLQMNSLNPVDPAVYYCAGDGLYWWMYYWGQGTQVTVSS | low polyreactivity |
| QVQRVESGGGIVQAGGTLRLSCAASLRIKDNVMGRYIQAHGKERELVAAITRSAGRTYYADSVKGRFTISRDNAKYTVYLQKNSLKPEDTALYYCAAHAERYGYEYWGQGTQVTVSS | low polyreactivity |
| QVQRVESGGGLFQAGGRLRLSCAASGSISLKYAMGWYRQAPGKERELVATISRGGSTNYADSVKGRFTISRDNAKNTVYIQMNSLKPEDTAVYYCAANYGRPYGTYGYWGQGTQVTVSS | high polyreactivity |
| QVQRVESGGGLFQAGRSLRLSCAASGSTIRRYAMGWYRQAPGKERELVAAMSRGGNTNYADSVKGRFTISRDNATNTVYLQMNCLKPEDTAVYYCAAKLYGGWYRDFAACGMDYWGQGTQVTVCS | high polyreactivity |
| QVQRVESGGGLLQAGRSLRLSCAASGTIFYHYAMGWYRQAPGKERELVAAMTRSGGSTYYADSVKGRFTISRDNAKNTVYLQMNSLNPEDTAVYYCAKDPDSYNFLTSNWYDYWGQGTQVTVCS | low polyreactivity |
| QVQRVESGGGLVQAGASLRLSCAASGSTFLTNAMGWYIQAPGKERELVAAITWSGTSTYADSVKGRFTISRDNAKNTVYLQMNSLKPEDTAVYYCIADGWYYPTDDYWGQGTQVTVSS | low polyreactivity |

Reference: the nanobody polyreactivity screen of Harvey et al. (2022)
